Experiments:
[1] = molecular target: Anti-CD28 Fab (SEQ ID NOs: 202, 203); test: phage binding ELISA on captured Fab;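 further: clonal phage supernatants added briefly to wells pre-incubated with CD28 antigen or with blocking buffer only, then washed, bound phage read by ELISA using HRP-coupled anti-M13 antibody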
Procedure: (§1) Clonal phage were harvested as crude supernatants and screened via standard ELISAs. […] Prior to the addition of clonal phage, wells were incubated with blocking buffer and CD28 antigen or blocking buffer alone. Without washing or aspirating, clonal phage supernatants were then added to the wells and incubated for a short time. Wells were then washed followed by detection of bound phage using a horse radish conjugated anti-M13 antibody.

[2] = molecular target: Anti-CD28 Fab (SEQ ID NOs: 202, 203); test: phage binding ELISA on captured Fab, competitor CD28 antigen;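 further: clonal phage supernatant binding in wells preincubated with CD28 antigen in blocking buffer, detected by HRP-conjugated anti-M13 antibody ELISA, compared with blocking buffer alone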
Procedure: as §1

Chain of Anti-CD28 Fab (SEQ ID NOs: 202, 203) (VH, as listed by the source, chain 1 of 2): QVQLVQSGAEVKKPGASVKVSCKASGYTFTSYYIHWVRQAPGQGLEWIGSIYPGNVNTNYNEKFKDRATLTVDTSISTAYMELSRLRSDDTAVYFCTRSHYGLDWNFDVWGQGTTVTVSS
Chain of Anti-CD28 Fab (SEQ ID NOs: 202, 203) (VL, as listed by the source, chain 2 of 2): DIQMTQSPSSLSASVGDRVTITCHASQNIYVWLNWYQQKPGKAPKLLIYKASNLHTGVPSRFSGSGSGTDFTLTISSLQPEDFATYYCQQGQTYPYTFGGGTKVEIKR

Binder: YCDGHSFEYMAKCL [Phage-794]
- Anti-CD28 Fab (SEQ ID NOs: 202, 203) signal [1]: 0.92
- Anti-CD28 Fab signal in the presence of CD28 [2]: 0.06

Binder: YCDGHSMEYMAKCL [Phage-821]
- Anti-CD28 Fab (SEQ ID NOs: 202, 203) signal [1]: 0.8
- Anti-CD28 Fab signal in the presence of CD28 [2]: 0.07

Binder: YCDGHTGVYKWKCI [Phage-827]
- Anti-CD28 Fab (SEQ ID NOs: 202, 203) signal [1]: 0.76
- Anti-CD28 Fab signal in the presence of CD28 [2]: 0.06

Binder: YCDGHELMYMEKCL [Phage-797]
- Anti-CD28 Fab (SEQ ID NOs: 202, 203) signal [1]: 0.92
- Anti-CD28 Fab signal in the presence of CD28 [2]: 0.06

Binder: YCDGHKWEYLQKCL [Phage-816]
- Anti-CD28 Fab (SEQ ID NOs: 202, 203) signal [1]: 0.84
- Anti-CD28 Fab signal in the presence of CD28 [2]: 0.06

Binder: YCDGHSAEYLGKCL [Phage-795]
- Anti-CD28 Fab (SEQ ID NOs: 202, 203) signal [1]: 0.92
- Anti-CD28 Fab signal in the presence of CD28 [2]: 0.07

Binder: YCEGHSSEYMVKCL [Phage-826]
- Anti-CD28 Fab (SEQ ID NOs: 202, 203) signal [1]: 0.77
- Anti-CD28 Fab signal in the presence of CD28 [2]: 0.06

Binder: YCQGHSVQYMAKCL [Phage-825]
- Anti-CD28 Fab (SEQ ID NOs: 202, 203) signal [1]: 0.77
- Anti-CD28 Fab signal in the presence of CD28 [2]: 0.06

Binder: YCAGHSAEYIQKCL [Phage-823]
- Anti-CD28 Fab (SEQ ID NOs: 202, 203) signal [1]: 0.8
- Anti-CD28 Fab signal in the presence of CD28 [2]: 0.08

Binder: YCAGHSAQYMWKCL [Phage-793]
- Anti-CD28 Fab (SEQ ID NOs: 202, 203) signal [1]: 0.92
- Anti-CD28 Fab signal in the presence of CD28 [2]: 0.07

Binder: YCEGHTQAYLAKCL [Phage-792]
- Anti-CD28 Fab (SEQ ID NOs: 202, 203) signal [1]: 0.93
- Anti-CD28 Fab signal in the presence of CD28 [2]: 0.1

Binder: YCDGHSMTYMAKCI [Phage-815]
- Anti-CD28 Fab (SEQ ID NOs: 202, 203) signal [1]: 0.84
- Anti-CD28 Fab signal in the presence of CD28 [2]: 0.06

Binder: YCAGHSLQYLGKCY [Phage-813]
- Anti-CD28 Fab (SEQ ID NOs: 202, 203) signal [1]: 0.86
- Anti-CD28 Fab signal in the presence of CD28 [2]: 0.06

Binder: YCDGHDPQYIRKCI [Phage-817]
- Anti-CD28 Fab (SEQ ID NOs: 202, 203) signal [1]: 0.83
- Anti-CD28 Fab signal in the presence of CD28 [2]: 0.06

Binder: YCAGHLEMYMSKCL [Phage-798]
- Anti-CD28 Fab (SEQ ID NOs: 202, 203) signal [1]: 0.91
- Anti-CD28 Fab signal in the presence of CD28 [2]: 0.07

Binder: YCDGHSPQYLWKCL [Phage-822]
- Anti-CD28 Fab (SEQ ID NOs: 202, 203) signal [1]: 0.8
- Anti-CD28 Fab signal in the presence of CD28 [2]: 0.05

Binder: YCVGHSPEYIWKCL [Phage-796]
- Anti-CD28 Fab (SEQ ID NOs: 202, 203) signal [1]: 0.92
- Anti-CD28 Fab signal in the presence of CD28 [2]: 0.06

Binder: YCAGHTQEYMLKCL [Phage-824]
- Anti-CD28 Fab (SEQ ID NOs: 202, 203) signal [1]: 0.78
- Anti-CD28 Fab signal in the presence of CD28 [2]: 0.06

Binder: YCAGHAAIYMAKCL [Phage-814]
- Anti-CD28 Fab (SEQ ID NOs: 202, 203) signal [1]: 0.85
- Anti-CD28 Fab signal in the presence of CD28 [2]: 0.07

Binder: YCEGHLPMYMQKCM [Phage-818]
- Anti-CD28 Fab (SEQ ID NOs: 202, 203) signal [1]: 0.82
- Anti-CD28 Fab signal in the presence of CD28 [2]: 0.07

Binder: YCEGHAREYMDKCL [Phage-820]
- Anti-CD28 Fab (SEQ ID NOs: 202, 203) signal [1]: 0.8
- Anti-CD28 Fab signal in the presence of CD28 [2]: 0.07
